Experimental data published in patent US20210292393A1 (published 2021).
Where two headings read alike, the source gives them in different places.

Columns and labels:
Assay in all cases: BLI
[1] = target: T1, SARS-CoV-2 spike ectodomain (UniProt P0DTC2 14-1213)
[2] = target: T1, SARS-CoV-2 spike ectodomain; remark: listed apart in the source
[3] = target: T1, SARS-CoV-2 spike ectodomain; remark: listed apart in the source

B1: Fab 419 (Fab, V domains shown)
VH: QVQLVQSGAEVKKPGASVKVSCKASGYTFTSYYMHWVRQAPGQGLEWMGIINPSGGSTSYAQKFQGRVTMTRDTSTSTVYMELSSLRSEDTAVYYCARDWTQSSGYDYYYGLDVWGQGTTVTVSS
VL: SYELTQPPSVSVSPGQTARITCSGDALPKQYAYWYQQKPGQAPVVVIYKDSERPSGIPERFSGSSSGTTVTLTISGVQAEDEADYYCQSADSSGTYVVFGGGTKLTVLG
Kd [1]: 365 nM

B2: Fab 483 (Fab, V domains shown)
VH: QVQLQESGPGLVKPSETLSLTCTVSGGSISSYYWSWIRQPPGKGLEWIGYIYYSGSTNYNPSLKSRVTISVDTSKNQFSLKLSSVTAADTAVYYCARAPEEKSSEIGELVGWGWFDPWGQGTLVTVSS
VL: not shown
Kd [2]: 23.1 nM

B3: Fab 494 (Fab, V domains shown)
VH: EVQLVESGGGLVQPGGSLRLSCAASGFTVSSNYMSWVRQAPGKGLEWVSVIYSGGSTFYADSVKGRFTISRDNSKNTLYLQMNSLRAEDTAVYYCARDSGDQLLDYWGQGTLVTVSS
VL: DIQLTQSPSFLSASVGDRVTITCRASQGISSYLAWYQQKPGKAPKLLIYAASTLQSGVPSRFSGSGSGTEFTLTISSLQPEDFATYYCQQLNSYPPFTFGPGTKVDIKR
Kd [3]: 5.9 nM
